Patent publication US20240301062A1 (BEIGENE SWITZERLAND, published 2024)
Numbering of substitutions follows the chain as printed. Numbers in names are those of the source. Where two headings read alike, the source gives them in different places.

What was measured:
CD3ε (SPR analyte) = CD3ε (SPR analyte) (UniProt P07766 23-126, limits assumed); experiment: SPR, scFv-Fc
[1] = biological target: T1, human native CD3 on live cells (HuT78, Jurkat) (human, UniProt P07766 23-207; P09693 23-182; P04234 22-171); experiment: FACS, HuT78 cells, Test 2
T1 construct: whole, on cells; also called human CD3
Procedure: (§1) For affinity determination, antibodies were captured by anti-human Fc surface, and used in the affinity-assay based on surface plasmon resonance (SPR) technology. The binding activity of humanized sp34 to bind native CD3 on live cells was evaluated using HuT78 cells in a FACS based assay. Live HuT78 cells were seeded in 96-well plate, and were incubated with a series of dilutions of chimeric or humanized sp34. Mouse anti-Human IgG was used as second antibody to detect antibody binding to the cell surface. EC50 values for dose-dependent binding to human native CD3 were determined by fitting the dose-response data to the four-parameter logistic model with GraphPad Prism.

[2] = biological target: T1, human native CD3 on live cells (HuT78, …); experiment: FACS, HuT78 cells, Test 3
Procedure: as §1

[3] = biological target: T1, human native CD3 on live cells (HuT78, …); experiment: flow cytometry on live HuT78 cells, mouse anti-human IgG secondary, MFI
Procedure: as §1

[4] = biological target: T1, human native CD3 on live cells (HuT78, …); experiment: as above; remark: listed apart in the source
Procedure: as §1

human claudin 9 (CLDN9) [5] = biological target: T2, human claudin 9 (CLDN9) (human, UniProt O95484 1-217); experiment: flow cytometry, CHOK1/human CLDN9-GFP cells
T2 construct: also called human CLDN9
T2 sequence: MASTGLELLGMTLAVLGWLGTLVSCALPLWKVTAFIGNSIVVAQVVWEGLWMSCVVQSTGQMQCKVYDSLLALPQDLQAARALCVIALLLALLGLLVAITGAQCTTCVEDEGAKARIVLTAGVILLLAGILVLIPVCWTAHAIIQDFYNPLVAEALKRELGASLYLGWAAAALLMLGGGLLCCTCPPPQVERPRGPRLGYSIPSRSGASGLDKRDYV

cyno CLDN6 = biological target: T3, cyno CLDN6 (cyno); experiment: flow cytometry, CHOK1/Cyno CLDN6-GFP cells
T3 construct: whole, on cells; also called cynomolgus CLDN6

human claudin 6 (CLDN6) [6] = biological target: T4, human claudin 6 (CLDN6) (human, UniProt P56747 1-220); experiment: flow cytometry, CHOK1/human CLDN6-GFP cells
T4 construct: also called human CLDN6; hCLDN6
T4 sequence: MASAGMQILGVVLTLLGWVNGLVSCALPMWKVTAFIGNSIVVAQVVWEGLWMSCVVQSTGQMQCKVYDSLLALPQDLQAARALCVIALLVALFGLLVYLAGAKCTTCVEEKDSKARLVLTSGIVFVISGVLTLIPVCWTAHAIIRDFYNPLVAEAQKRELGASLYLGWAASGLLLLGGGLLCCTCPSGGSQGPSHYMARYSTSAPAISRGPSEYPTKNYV

mouse CLDN6 = biological target: T5, mouse CLDN6 (mouse, UniProt Q9Z262 1-219); experiment: flow cytometry, CHOK1/mouse CLDN6-GFP cells
T5 construct: whole, on cells
T5 sequence (looked up): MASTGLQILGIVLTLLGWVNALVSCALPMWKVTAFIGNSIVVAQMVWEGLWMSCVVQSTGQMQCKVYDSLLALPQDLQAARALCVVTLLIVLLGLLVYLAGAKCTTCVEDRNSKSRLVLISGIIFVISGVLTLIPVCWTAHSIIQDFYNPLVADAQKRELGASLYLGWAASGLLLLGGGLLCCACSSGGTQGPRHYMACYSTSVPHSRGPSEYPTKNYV

human claudin 6 (CLDN6) [7] = biological target: T4, human claudin 6 (CLDN6); experiment: flow cytometry, PA-1 cells (endogenous CLDN6)
[8] = biological target: T6, Human CDεγ (recombinant human CD3εγ) (human, UniProt P07766 23-126; P09693 23-116); experiment: SPR, recombinant protein
T6 construct: Printed as CDεγ; read as CD3εγ
Procedure: (§2) The binding kinetics of CLDN6×CD3 BsAb BG143P were measured using SPR. SPR was used to measure the on-rate constant (kₐ) and off-rate constant (kd) of the antibodies to recombinant proteins of CDεγ and then determined the affinity constant (KD).

[9] = biological target: T7, Cyno CDεγ (recombinant cynomolgus CD3εγ) (cyno, UniProt Q95LI5 22-117; Q95LI7 23-113); experiment: SPR, recombinant protein
T7 construct: Printed as CDεγ; read as CD3εγ
T7 sequence (looked up) 1: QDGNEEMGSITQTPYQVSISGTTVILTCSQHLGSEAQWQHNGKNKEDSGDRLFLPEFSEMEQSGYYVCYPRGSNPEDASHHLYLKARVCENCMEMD
T7 sequence (looked up) 2: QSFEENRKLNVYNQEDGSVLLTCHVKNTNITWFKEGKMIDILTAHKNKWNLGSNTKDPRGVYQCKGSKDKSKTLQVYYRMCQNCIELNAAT
Procedure: as §2

[10] = biological target: T1, human native CD3 on live cells (HuT78, …); experiment: FACS, CD3-expressing Jurkat cells
human claudin 6 (CLDN6) [11] = biological target: T4, human claudin 6 (CLDN6); experiment: FACS, CLDN6-expressing PA-1 cells
human claudin 9 (CLDN9) [12] = biological target: T2, human claudin 9 (CLDN9); experiment: flow cytometry on NCI-H1299 cells stably expressing human CLDN9, anti-human Fc gamma secondary, MFI (AF647) [right panel]
Procedure: Expressing vectors of human CLDN6 and CLDN9 were established by inserting synthesized cDNA coding corresponding sequences into mammalian expression vector. NCI-H1299 stable cells expressing human CLDN6 and CLDN9 were generated by transfection of corresponding plasmids. Cells were suspended at a concentration of 1×10⁶ cells in FACS buffer (2% FBS, 1×PBS), and the cell suspension was dispensed into a U-bottom 96-well plate ([…]). Antibody was added thereto at final top concentration of 100 nM and 2× dilute for 11 dilutions, then mixed with cells and incubated at 4° C. for 1 hour. After centrifugation, the reaction solution was removed, and the cells were washed twice with 200 μL/well FACS buffer. Then, APC-anti human Fcγ was diluted 500-fold with FACS buffer and added as secondary antibodies to the cells. The cells were incubated at 4° C. for 30 mins, then washed twice as above, and suspended in 100 μL FACS buffer. The cell suspension was subjected to flow cytometry.

T6 sequence (P07766 23-126, chain 1 of 2): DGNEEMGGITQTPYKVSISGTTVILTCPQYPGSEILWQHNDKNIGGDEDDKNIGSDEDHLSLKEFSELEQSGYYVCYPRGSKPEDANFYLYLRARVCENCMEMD
T6 sequence (P09693 23-116, chain 2 of 2): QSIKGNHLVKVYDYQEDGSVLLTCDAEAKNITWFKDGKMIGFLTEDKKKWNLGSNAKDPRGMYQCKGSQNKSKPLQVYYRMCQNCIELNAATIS
Sequence of CD3ε (SPR analyte) (P07766 23-126 limits assumed): as the sequence (P07766 23-126, chain 1 of 2) above
T1 sequence (P07766 23-207, chain 1 of 3): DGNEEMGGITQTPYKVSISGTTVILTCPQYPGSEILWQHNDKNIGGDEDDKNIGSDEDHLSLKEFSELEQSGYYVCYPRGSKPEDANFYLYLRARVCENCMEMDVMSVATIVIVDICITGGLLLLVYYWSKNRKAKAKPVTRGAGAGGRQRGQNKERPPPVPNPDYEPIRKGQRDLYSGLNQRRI
T1 sequence (P09693 23-182, chain 2 of 3): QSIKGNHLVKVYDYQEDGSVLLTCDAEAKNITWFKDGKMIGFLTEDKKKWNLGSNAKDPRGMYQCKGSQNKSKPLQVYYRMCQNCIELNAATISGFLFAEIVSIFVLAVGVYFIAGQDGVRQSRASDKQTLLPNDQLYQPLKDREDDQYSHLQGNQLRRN
T1 sequence (P04234 22-171, chain 3 of 3): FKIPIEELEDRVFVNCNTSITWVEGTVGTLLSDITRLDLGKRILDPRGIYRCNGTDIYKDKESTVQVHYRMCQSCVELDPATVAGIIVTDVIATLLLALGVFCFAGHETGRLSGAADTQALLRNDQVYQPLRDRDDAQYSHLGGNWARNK

B1: humanized scFv BG563P (scFv-Fc) (Fc fusion)
scFv: EVQLVESGGGLVQPGGSLRLSCAASGFTFNTYAMNWVRQAPGKGLEWVGRIRSKYNNYATYYADSVKGRFTISRDDAKNSLYLQMNSLRAEDTAVYYCVRHGNFGNSYVSWFAYWGQGTLVTVSSGGGGSGGGGSGGGGSEIVVTQSPATLSVSPGERATLSCRSSTGAVTTSNYANWVQQKPGQAPRGLIGGTNKRAPGIPARFSGSLSGDEATLTISSLQSEDFAVYYCALWYSNLWVFGGGTKVEIK
notes: BG561P with L4V in VL and A49G, D65G in VH; not shown: human IgG1 Fc region, scFv fused to its N-terminus
Question: With B1 as the binder, how does the Kd (CD3ε (SPR analyte)) read?
Answer: 1.57 nM

Question: What about the koff (CD3ε (SPR analyte)) of the same binder?
Answer: 0.000772 s⁻¹

Question: What about the kon (CD3ε (SPR analyte)) of the same binder?
Answer: 493000 M⁻¹ s⁻¹

Question: And the EC50 [1]?
Answer: 0.94 nM

Question: And the EC50 [2]?
Answer: 0.94 nM

Question: What about the “EC50 (read off the curve)” value [3] of the same binder?
Answer: ~0.1 µg/mL

Question: What about the “EC50 (read off the curve)” value [4] of the same binder?
Answer: ~0.1 µg/mL

B2: humanized scFv BG564P (scFv-Fc) (Fc fusion)
scFv: B1 scFv with N30S, N106S
notes: BG563P with N30S and N100S in VH; not shown: human IgG1 Fc region, scFv fused to its N-terminus
Question: Which results are given for B2?
Answer: Kd (CD3ε (SPR analyte)): 1.39 nM; koff (CD3ε (SPR analyte)): 0.000576 s⁻¹; kon (CD3ε (SPR analyte)): 414000 M⁻¹ s⁻¹; EC50 [2]: 1.23 nM; EC50 (read off the curve) [4]: ~0.1 µg/mL

B3: BG87P (mouse anti-CLDN6 antibody, hybridoma clone) (antibody, V domains shown)
VH: QIQLQQSGPELVKPGASVKISCKASGYSFTDYHINWVKQRPGQGLEWIGWIYPGSGYTKYNEKFKVKATLTVDTSSSTAYMHLTSLTSEDSAVYFCARSGIYHYVSSYYFDHWGQGTTLTVSS
VL: DIVMTQSHTFMSTSVGDRVSITCKASQDVGTAVAWYQQKPGQSPKLLIYWASTRHTGVPDRFTGSGSGTDFTLTISNVQSEDLADYFCQQYSSYTFGGGTKLEIK
notes: Mouse antibody purified from hybridoma supernatant on protein A; also called clone BG87P
Question: Does B3 bind (human claudin 9 (CLDN9) [5])?
Answer: no binding

Question: And the EC50 (cyno CLDN6)?
Answer: 6.08 nM

Question: And the EC50 (human claudin 6 (CLDN6) [6])?
Answer: 3.41 nM

Question: What about the EC50 (mouse CLDN6) of the same binder?
Answer: 94.7 nM

Question: And the EC50 (human claudin 6 (CLDN6) [7])?
Answer: 3.38 nM

B4: CLDN6xCD3 BsAb BG143P (bispecific antibody, human IgG1, kappa)
chain: EVQLVESGGGLVQPGGSLRLSCAASGFTFSTYAMNWVRQAPGKGLEWVGRIRSKYNNYATYYADSVKGRFTISRDDAKNSLYLQMNSLRAEDTAVYYCVRHGNFGSSYVSWFAYWGQGTLVTVSSGGGGSGGGGSGGGGSEIVVTQSPATLSVSPGERATLSCRSSTGAVTTSNYANWVQQKPGQAPRGLIGGTNKRAPGIPARFSGSLSGDEATLTISSLQSEDFAVYYCALWYSNLWVFGGGTKVEIKEPKSSDKTHTCPPCPAPPAAGPSVFLFPPKPKDTLMISRTPEVTCVVVDVSHEDPEVKFNWYVDGVEVHNAKTKPREEQYNSTYRVVSVLTVLHQDWLNGKEYKCKVSNKALAAPIEKTISKAKGQPREPQVYTLPPSRDELTKNQVSLWCLVKGFYPSDIAVEWESNGQPENNYKTTPPVLDSDGSFFLYSKLTVDKSRWQQGNVFSCSVMHEALHNHYTQKSLSLSPGK
heavy: EVQLQESGGGLVQPGGSLRLSCAASGYSFSDYHINWVRQAPGKGLEWVGYIYPGSGHTKYNEKFKGRFTISRDTSSNTAYLQMNSLRAEDTAVYYCARSGIYHYVSSYYFDHWGQGTLVTVSSASTKGPSVFPLAPSSKSTSGGTAALGCLVKDYFPEPVTVSWNSGALTSGVHTFPAVLQSSGLYSLSSVVTVPSSSLGTQTYICNVNHKPSNTKVDKKVEPKSCDKTHTCPPCPAPPAAGPSVFLFPPKPKDTLMISRTPEVTCVVVDVSHEDPEVKFNWYVDGVEVHNAKTKPREEQYNSTYRVVSVLTVLHQDWLNGKEYKCKVSNKALAAPIEKTISKAKGQPREPQVYTLPPSRDELTKNQVSLSCAVKGFYPSDIAVEWESNGQPENNYKTTPPVLDSDGSFFLVSKLTVDKSRWQQGNVFSCSVMHEALHNHYTQKSLSLSPGK
light: DIQMTQSPSSLSASVGDRVTITCKASQDAGSAVAWYQQKPGKAPKLLIYWASTRHTGVPSRFSGSGSGTDFTLTISSLQPEDFATYYCQQYSSYTFGGGTKLEIKRTVAAPSVFIFPPSDEQLKSGTASVVCLLNNFYPREAKVQWKVDNALQSGNSQESVTEQDSKDSTYSLSSTLTLSKADYEKHKVYACEVTHQGLSSPVTKSFNRGEC
notes: module ratio 1:1, Fc null huIgG1, knob into hole; also called CLDN6×CD3 BsAb; CLDN6×CD3 antibody
Question: How did the Kd [8] turn out when B4 was run?
Answer: 8.31 nM

Question: And the koff [8]?
Answer: 0.0181 s⁻¹

Question: What about the kon [8] of the same binder?
Answer: 2.17e+06 M⁻¹ s⁻¹

Question: And the Kd [9]?
Answer: 4.55 nM

Question: What about the koff [9] of the same binder?
Answer: 0.00599 s⁻¹

Question: What about the kon [9] of the same binder?
Answer: 1.32e+06 M⁻¹ s⁻¹

Question: And the EC50 [10]?
Answer: 6.98 nM

Question: What about the EC50 (human claudin 6 (CLDN6) [11]) of the same binder?
Answer: 81.3 nM

Question: Does B4 bind (human claudin 9 (CLDN9) [12])?
Answer: no binding (tested: 100 nM)
